Measured values published in PMC4455164, “Facilitated Tau Degradation by USP14 Aptamers via Enhanced Proteasome Activity”.

B1: USP14-3 mutant (structured_RNA)
RNA: GGGUUCACUGCAGACUUGACGAAGCUUAAAAAAAAGGCUCGUUUGGCCUGCCGAAAAAAGGCCGGGAAAUGGAUCCACAUCUACGAAUUC
B2: USP14-2 mutant (structured_RNA)
RNA: GGGUUCACUGCAGACUUGACGAAGCUUCUGAAAAAAAGUUAGUUUCGCUGGUUUAAAAUCGGUGCGGAAUGGAUCCACAUCUACGAAUUC
B3: USP14-1 mutant (structured_RNA)
RNA: GGGUUCACUGCAGACUUGACGAAGCUUGCAGUGAUGUGCUUCUAAAAAACAACCUAAAAAAAUUGCCAAUGGAUCCACAUCUACGAAUUC

molecular target: USP14 (GST-USP14) (UniProt P54578 1-494); test: GST pull-down with RT-PCR; 2 pmol GST-protein on GST sepharose 4B resin + 20 pmol RNA; pull-down buffer not restated; SELEX binding buffer 30 mM Tris-HCl pH 7.5, 150 mM NaCl, 1.5 mM MgCl2, 2 mM DTT, 1% BSA, RT; conditions: protein: recombinant; tags: N-terminal GST (pGEX-2T)
Sequence (P54578 whole entry): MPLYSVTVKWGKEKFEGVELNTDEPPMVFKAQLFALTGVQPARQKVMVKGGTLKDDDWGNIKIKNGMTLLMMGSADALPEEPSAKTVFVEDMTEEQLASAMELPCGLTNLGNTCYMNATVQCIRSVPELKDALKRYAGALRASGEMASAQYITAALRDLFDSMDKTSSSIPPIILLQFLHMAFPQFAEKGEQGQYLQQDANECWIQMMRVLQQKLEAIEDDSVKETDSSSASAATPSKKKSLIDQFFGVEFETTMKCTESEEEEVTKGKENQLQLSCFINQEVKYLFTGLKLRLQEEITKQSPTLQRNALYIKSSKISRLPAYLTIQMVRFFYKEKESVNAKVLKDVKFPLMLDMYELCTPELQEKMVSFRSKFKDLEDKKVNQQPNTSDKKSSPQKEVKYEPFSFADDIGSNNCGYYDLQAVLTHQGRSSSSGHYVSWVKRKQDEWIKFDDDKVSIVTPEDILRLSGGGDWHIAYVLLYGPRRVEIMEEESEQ

Binding result, no binding:
B1
UUUGUCUAGCGCGUAGUGGGGAGAUGUUGUGAUACUGGGG (ssRNA) [control RNA aptamer]
B2
B3
